# Test results reported in publication PMC5552742, “Kinetic and Structural Characterization of the Effects of Membrane on the Complex of Cytochrome b5 and Cytochrome c” (Scientific Reports, 2017).
# B1: equine cytochrome c (natural protein)
# chain: not shown
# notes: Unlabelled in the titrations into 15N-cytb5, in SEC/DLS and in stopped flow (ferric); uniformly 15N-labelled where it is the observed protein in NMR; also called cyt c; horse cyt c; source: obtained through a collaborator, prepared and purified as described previously; 15N-labeled form expressed and purified as reported in the literature
# Columns and labels:
# Settings in all cases: both partners purified
# [1] = target: T1, full-length rabbit cytochrome b5 (rabbit, UniProt P00169 1-134); assay: stopped-flow absorbance kinetics; cytb5 in nanodiscs; 25 °C, anaerobic; pre-reduced cytb5 mixed with ferric cyt c, final 6 uM cytb5 and 6.6 uM cyt c; micro-rates from numerical fit of the scheme binding (k1, k2) then electron transfer (k3)
# T1 construct: Uniformly 15N-labelled where it is the observed protein in NMR, unlabelled otherwise; Ferric in NMR; reduced with dithionite (ferrous) for stopped flow; also called cytb 5; cytb5; source: E. coli C41, pLW01 plasmid, purified
# [2] = target: T1, full-length rabbit cytochrome b5; assay: stopped-flow absorbance kinetics; cytb5 in DMPC/DHPC bicelles; 25 °C, anaerobic; pre-reduced cytb5 mixed with ferric cyt c, final 6 uM cytb5 and 6.6 uM cyt c; micro-rates from numerical fit of the scheme binding (k1, k2) then electron transfer (k3)
# [3] = target: T1, full-length rabbit cytochrome b5; assay: stopped-flow absorbance kinetics; lipid-free cytb5; 25 °C, anaerobic; pre-reduced cytb5 mixed with ferric cyt c, final 6 uM cytb5 and 6.6 uM cyt c; micro-rates from numerical fit of the scheme binding (k1, k2) then electron transfer (k3); k2 fixed to zero
# T1 sequence (P00169 whole entry): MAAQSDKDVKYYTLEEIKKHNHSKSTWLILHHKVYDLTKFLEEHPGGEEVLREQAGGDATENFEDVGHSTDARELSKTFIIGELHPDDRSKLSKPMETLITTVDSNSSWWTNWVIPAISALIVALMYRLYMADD
binder,measurement,setting,value
B1,koff,[1],54.54 ± 0.35 s⁻¹
same,koff,[2],46.2 ± 0.86 s⁻¹
same,koff,[3],~0 s⁻¹
